The source of these data is paper PMC3551895.

For orientation: stoichiometry N means a count of units in the complex or per binding partner.

The assay concerns the target vibrillin βγ-crystallin domain (Vibrio cholerae). Kind of assay: SEC. A general note: In gel filtration, larger molecules generally elute earlier.

Take “vibrillin βγ-crystallin domain (domain or fragment)”: the stoichiometry N is 6.
